According to US20160369258A1, “RESTRICTING NUCLEAR PROTEIN TO SPECIFIC PHASES OF THE CELL CYCLE” (UNIVERSITY OF WASHINGTON, priority 2014, published 2016):

Experiments:
Ramos B cells [1] = test: Subcellular distribution of AID fusion proteins determined by HCS microscopy; assay type: cell-based, human; conditions: for Nuclear mCherry, mean: corrected for cytoplasmic baseline
Method: Cells were fixed in 3.7% formaldehyde at a density of 2×10^6 cells/ml and stained with whole cell stain (HCS CellMask, Invitrogen) and DAPI (0.2 μg/ml). Fixed cells were then washed, resuspended in PBS and spun down in a 96-well μclear microplate (Greiner Bio One) for imaging. Cells were imaged by Thermo Scientific ArrayScan VTI HCS reader, analyzing 3000-6000 cells in each treatment group. Cells with very low or very high mCherry signals were eliminated, gating based on the mock transduction control (low) and eliminating cells with signals more than 5 SD from the mean (high). The HCS Colocalization BioApplication protocol was used to determine nuclear and whole cell boundaries in individual cells as defined by DAPI and HCS CellMask, respectively, thereby defining the cytoplasmic region as the region between nuclear and whole cell boundaries. The average signal in the nuclear and cytoplasmic compartments was determined in individual cells by measuring the total intensity of mCherry signal divided by area within each compartment. The ratio of nuclear to cytoplasmic signal (N/C) was calculated as the ratio of the average signals of nuclear and cytoplasmic mCherry.
G1, S, and G2/M phase cells were distinguished by ranking DNA content as determined by total DAPI signal, and specific fractions of the population assigned to G1, S and G2/M phases (FIG. 16A). HCS results were expressed in terms of average signal, to ensure independence of cell size, which increases during cell cycle (FIG. 16).
Cells were fixed and stained with whole cell stain (HCS CellMask, Invitrogen) and DAPI, washed, and imaged by Thermo Scientific ArrayScan VTI HCS reader, analyzing 3000-6000 cells in each treatment group. To enable accurate comparisons among different transductant populations, nuclear signal for each cell was corrected by subtraction of the corresponding baseline value, as established by linear regression analysis. HCS results were expressed in terms of average signal, to ensure independence of cell size.

Ramos B cells [2] = test: sIgM loss frequency assay (surrogate for SHM); assay type: cell-based, human; conditions: day 7 after sorting mCherry+ cells
Description: sIgM loss frequency provides a convenient surrogate assay for SHM (45, 46). To determine fractions of sIgM− cells, 2-5×10^5 cells were fixed in 3.7% formaldehyde and stained with anti-human IgM (1:500, Souther Biotech), and sIgM− variants quantified by FACS as described (47). To establish that selective pressure was not sufficient to affect the frequency of sIgM loss, we assayed loss of mCherry signal posttransduction (FIG. 18).

B1: AID^F193A-mCherry: AID-mCherry carrying the AID F193A mutation, which prevents nuclear export (protein, UniProt Q9GZX7 1-198, looked up, variant F193A)
Single-stranded DNA cytosine …: MDSLLMNRRKFLYQFKNVRWAKGRRETYLCYVVKRRDSATSFSLDFGYLRNKNGCHVELLFLRYISDWDLDPGRCYRVTWFTSWSPCYDCARHVADFLRGNPNLSLRIFTARLYFCEDRKAEPEGLRRLHRAGVQIAIMTFKDYFYCWNTFVENHERTFKAWEGLHENSVRLSRQLRRILLPLYEVDDLRDAARTLGL
modifications: C-terminal mCherry fusion
notes: AID-mCherry carrying the AID F193A mutation, which prevents nuclear export
subcellular localization by HCS across cell cycle (Ramos B cells [1]; G1, S, G2/M phase cells): persistent nuclear localization
Cytoplasmic mCherry, mean (Ramos B cells [1]; G1 phase cells): 66.4
Total mCherry, mean (Ramos B cells [1]; G1 phase cells): 117.5
Nuclear mCherry, mean (Ramos B cells [1]; G1 phase cells): 75.4
Cytoplasmic mCherry, mean (Ramos B cells [1]; G2/M phase cells): 60.2
Total mCherry, mean (Ramos B cells [1]; G2/M phase cells): 109.7
Nuclear mCherry, mean (Ramos B cells [1]; G2/M phase cells): 63.6
Cytoplasmic mCherry, mean (Ramos B cells [1]; S phase cells): 58.6
Total mCherry, mean (Ramos B cells [1]; S phase cells): 103.2
Nuclear mCherry, mean (Ramos B cells [1]; S phase cells): 56.8
Cytoplasmic mCherry, mean (Ramos B cells [1]; whole transductant population): 62.9
Total mCherry, mean (Ramos B cells [1]; whole transductant population): 111.4
Nuclear mCherry, mean (Ramos B cells [1]; whole transductant population): 67.5
sIgM loss rates (Ramos B cells [2]): greatly elevated
